Results on one molecule are retold here after doi:10.1101/2024.09.06.611628 (bioRxiv, 2024).

This test deals with T1, CATCH(-) peptide.
T1 peptide: Ac-EQEFEFEFEQE-NH2
Put plainly: gelation on mixing.

In the case of Ac-QQKFKFKFKQQ-NH2 [CATCH(+) peptide], the binding result is listed as “binds”.
